This note sets out measurements from the supplement of paper PMC10201428.

B1: library; a variant is named by its letters at N, in order (parent)
chain: ACATTTGTTGATACAACCATAAAATGATAATTACACCCATAAATTGATAATTATCACACCCANNNNNNNNNNNNNNCTCTGATCATAGTCAGACCAACATTGCTACGACCCGTATTCGCACCGACAC

Variants of B1 are the subject of data set [1]. Nature of the data set: relative integration efficiency (T-RL orientation) vs wild-type transposon end (log2 (normalized fold change)); transposon end mutated: right end (5 bp flank + 75 bp right end); higher = more efficient transposition. The note with it: with VchCAST RNA-guided transposition machinery (E. coli BL21(DE3) host, lacZ target). As to the method: (§1)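 Pooled, barcoded VchCAST (Tn6677) mini-transposon donor libraries; each variable transposon-end sequence sits in a fixed pDonor mini-transposon context (10-bp barcode and cargo not included). Left- or right-end libraries were co-transformed with pEffector (TniQ-Cascade, TnsABC, lacZ crRNA, T7, 0.1 mM IPTG) into E. coli BL21(DE3) and grown 18 h at 37 C. T-LR and T-RL junction amplicons were sequenced; output/input barcode fold change was normalised to the mean of four wild-type barcodes and log2-transformed. Two biological replicates; zero-count/undetected variants carry floor values (-10 / -15), censored here. Barcode uncoupling by PCR recombination adds noise.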

The variants in data set [2] derive from B1. In words: relative integration efficiency (T-LR orientation) vs wild-type transposon end (log2 (normalized fold change)); transposon end mutated: right end (5 bp flank + 75 bp right end); higher = more efficient transposition. The note with it: with VchCAST RNA-guided transposition machinery (E. coli BL21(DE3) host, lacZ target). The protocol: as §1

± gives the standard deviation of the averaged measurements.

Regarding TAAATTGATATTGC A11C, the “relative integration efficiency (log2)” value in data set [1] was 0.342 ± 0.021; in data set [2] it was -0.681 ± 0.56.

Consider TAAATTGATATTGC A11G, for which the “relative integration efficiency (log2)” value in data set [1] was -0.0551 ± 0.029; in data set [2], -0.5 ± 0.17.

Take TAAATTGATATTGC A11T: the “relative integration efficiency (log2)” value in data set [1] was 0.176 ± 0.055; in data set [2], -0.678 ± 0.051.

Regarding TAAATTGATAGTGC, the “relative integration efficiency (log2)” value in data set [1] was -0.0439 ± 0.022; in data set [2], 0.754 ± 0.013.

On to TAAAGGGATATTGC, for which the “relative integration efficiency (log2)” value was -0.254 ± 0.0064 in data set [1] and 1.63 ± 0.069 in data set [2].

Take TAAATTGAGCGGGC: the “relative integration efficiency (log2)” value was -0.15 ± 0.012 in data set [1] and 2.13 ± 0.086 in data set [2].

For TAAATTGATATTGC C59A, the “relative integration efficiency (log2)” value in data set [1] is 0.048 ± 0.078; in data set [2] it was -0.0286 ± 0.31.

With TAAATTGATATTGC C59G, the “relative integration efficiency (log2)” value was -0.141 ± 0.043 in data set [1] and 0.747 ± 0.024 in data set [2].

On to TAAATTGATATTGC C59T, for which the “relative integration efficiency (log2)” value in data set [1] was -0.0651 ± 0.0017; in data set [2] it was 0.538 ± 0.076.

Regarding TAAATTGATATTGC A15T, the “relative integration efficiency (log2)” value was -0.218 ± 0.022 in data set [1] and -0.624 ± 0.069 in data set [2].

TAAATTGATATTGC A15G: the “relative integration efficiency (log2)” value in data set [1] was -0.381 ± 0.0063; in data set [2] it was -0.228 ± 0.029.

In the case of TAAATTGATATTGC A15C, the figures for the “relative integration efficiency (log2)” value in data set [1] and in data set [2] were 0.297 ± 0.19 and 0.449 ± 0.3, respectively.

For TAAATTGATATTGC A43T, the “relative integration efficiency (log2)” value was -0.127 ± 0.0053 in data set [1] and -0.303 ± 0.3 in data set [2].

As for TAAATTGATATTGC A43C, the results for the “relative integration efficiency (log2)” value in data set [1] and in data set [2] were -0.127 ± 0.027 and -0.0895 ± 0.24, respectively.

TAAATTGATATTGC A43G: the figures for the “relative integration efficiency (log2)” value in data set [1] and in data set [2] were -0.0412 ± 0.15 and -0.246 ± 0.17, respectively.

For TAAATTGATATTGC C38A, the “relative integration efficiency (log2)” value was -0.117 ± 0.04 in data set [1] and -0.451 ± 0.24 in data set [2].

With TAAATTGATATTGC C38G, the “relative integration efficiency (log2)” value was 0.03 ± 0.16 in data set [1] and -0.489 ± 0.06 in data set [2].

Turning to TAAATTGATATTGC C38T, the “relative integration efficiency (log2)” value in data set [1] is 0.335 ± 0.044; in data set [2], -0.111 ± 0.49.

As to TAAAGTGATATTTA C59A, the entries for the “relative integration efficiency (log2)” value in data set [1] and in data set [2] were -0.094 ± 0.095 and -0.17 ± 0.3, respectively.

In the case of TAAATTGATATTGC A39G, the “relative integration efficiency (log2)” value in data set [1] was -0.0861 ± 0.07; in data set [2], -0.449 ± 0.17.

On to TAAATTGATATTGC A39C, for which the “relative integration efficiency (log2)” value in data set [1] is -1.23 ± 0.021; in data set [2] it was -1.05 ± 0.2.

Consider TAAATTGATATTGC A39T, for which the figures for the “relative integration efficiency (log2)” value in data set [1] and in data set [2] were -0.236 ± 0.061 and -0.533 ± 0.43, respectively.

For TAAATTGATATTGC A62G, the “relative integration efficiency (log2)” value was -0.0391 ± 0.14 in data set [1] and 0.97 ± 0.12 in data set [2].

Turning to TAAATTGATATTGC A62C, the results for the “relative integration efficiency (log2)” value in data set [1] and in data set [2] were -0.726 ± 0.016 and 2.18 ± 0.2, respectively.

Regarding TAAATTGATATTGC A62T, the results for the “relative integration efficiency (log2)” value in data set [1] and in data set [2] were -0.435 ± 0.12 and 1.36 ± 0.086, respectively.

For the variant TAAATTGATATTGC A3T, the “relative integration efficiency (log2)” value in data set [1] was -0.114 ± 0.0076; in data set [2], -0.195 ± 0.15.

With TAAATTGATATTGC A3G, the “relative integration efficiency (log2)” value in data set [1] was 0.00116 ± 0.033; in data set [2], 0.0517 ± 0.23.

Consider TAAATTGATATTGC A3C, for which the “relative integration efficiency (log2)” value in data set [1] was -0.109 ± 0.047; in data set [2], -0.337 ± 0.37.

Take TAAATTGATATTGC C17A: the “relative integration efficiency (log2)” value in data set [1] was -0.124 ± 0.042; in data set [2], -0.331 ± 0.098.

Take TAAATTGATATTGC C17T: the “relative integration efficiency (log2)” value in data set [1] is 7.24e-05 ± 0.068; in data set [2] it was -0.744 ± 0.39.

TAAATTGATATTGC C17G: the “relative integration efficiency (log2)” value in data set [1] was -0.0518 ± 0.013; in data set [2] it was -0.402 ± 0.0041.

Consider TAAATTCATATTGC, for which the “relative integration efficiency (log2)” value in data set [1] is -0.149 ± 0.23; in data set [2] it was 2.62 ± 0.096.

For the variant TAAATTGAAATTGC, the entries for the “relative integration efficiency (log2)” value in data set [1] and in data set [2] were -0.187 ± 0.13 and 1.06 ± 0.27, respectively.

Regarding TAAATTGATATTGC C60T, the “relative integration efficiency (log2)” value in data set [1] was -0.182 ± 0.028; in data set [2], 0.2 ± 0.2.

With TAAATTGATATTGC C60A, the “relative integration efficiency (log2)” value in data set [1] was -0.462 ± 0.027; in data set [2], 1.55 ± 0.14.

Regarding TAAATTGATATTGC C60G, the entries for the “relative integration efficiency (log2)” value in data set [1] and in data set [2] were 0.0119 ± 0.012 and 0.315 ± 0.03, respectively.

In the case of TAAATTGAGATTGC, the “relative integration efficiency (log2)” value in data set [1] is -0.3392 ± 0.00035; in data set [2] it was 0.765 ± 0.23.

For TAAATTGATATTGA C77A, the “relative integration efficiency (log2)” value is 0.00362 ± 0.0095 in data set [1] and 0.066 ± 0.4 in data set [2].

Consider TAAATTGATATTGC A33T, for which the “relative integration efficiency (log2)” value in data set [1] is -0.264 ± 0.0049; in data set [2], -0.243 ± 0.38.

On to TAAATTGATATTGC A33C, for which the figures for the “relative integration efficiency (log2)” value in data set [1] and in data set [2] were 0.00253 ± 0.071 and 0.14 ± 0.18, respectively.

TAAATTGATATTGC A33G: the results for the “relative integration efficiency (log2)” value in data set [1] and in data set [2] were 0.137 ± 0.055 and -0.127 ± 0.057, respectively.

In the case of TAAATTGATATGGC, the entries for the “relative integration efficiency (log2)” value in data set [1] and in data set [2] were 0.087 ± 0.065 and 0.317 ± 0.14, respectively.

Consider TAAATTGATATTGC A1T, for which the “relative integration efficiency (log2)” value in data set [1] was -0.0487 ± 0.062; in data set [2], -0.0517 ± 0.26.

Take TAAATTGATATTGC A1C: the entries for the “relative integration efficiency (log2)” value in data set [1] and in data set [2] were -0.117 ± 0.016 and -0.165 ± 0.27, respectively.

Take TAAATTGATATTGC A1G: the “relative integration efficiency (log2)” value in data set [1] is -0.139 ± 0.068; in data set [2] it was -0.251 ± 0.32.

As for TAAATTGATATTGC G7T, the “relative integration efficiency (log2)” value in data set [1] is -2.2 ± 0.4; in data set [2] it was -3.44 ± 0.49.

In the case of TAAATTGATATTGC G7C, the “relative integration efficiency (log2)” value was -0.529 ± 0.13 in data set [1] and -1.41 ± 0.63 in data set [2].

Consider TAAATTGATATTGC G7A, for which the “relative integration efficiency (log2)” value in data set [1] is -0.0765 ± 0.034; in data set [2], -0.974 ± 0.015.

As for GAAATTGATATTGC A62C, the “relative integration efficiency (log2)” value is -0.604 ± 0.16 in data set [1] and 2.52 ± 0.065 in data set [2].

Turning to TAAATTGATATTGC A30C, the “relative integration efficiency (log2)” value was -0.623 ± 0.12 in data set [1] and -0.195 ± 0.17 in data set [2].

Take TAAATTGATATTGC A30G: the “relative integration efficiency (log2)” value in data set [1] is -0.795 ± 0.13; in data set [2] it was -0.2 ± 0.08.

TAAATTGATATTGC A30T: the “relative integration efficiency (log2)” value was -0.464 ± 0.16 in data set [1] and -0.0553 ± 0.55 in data set [2].

Consider TAAATACTAATTGC, for which the “relative integration efficiency (log2)” value was -0.376 ± 0.27 in data set [1] and 2.61 ± 0.13 in data set [2].

Consider TAAATTCTATTTGC, for which the “relative integration efficiency (log2)” value is -0.619 ± 0.18 in data set [1] and 2.22 ± 0.053 in data set [2].

For the variant TAAATTGATATTGC C34T, the “relative integration efficiency (log2)” value in data set [1] was -1.32 ± 0.14; in data set [2], -0.474 ± 0.43.

Consider TAAATTGATATTGC C34G, for which the “relative integration efficiency (log2)” value in data set [1] was -0.73 ± 0.11; in data set [2] it was -0.479 ± 0.0065.

For the variant TAAATTGATATTGC C34A, the “relative integration efficiency (log2)” value in data set [1] is -0.0537 ± 0.0045; in data set [2], 0.162 ± 0.16.
